Laboratory results as given in the nanobody polyreactivity screen of Harvey et al. (2022).

Assay: yeast display, Sf9 membrane polyspecificity reagent, FACS + sequencing; frameworks hold sequencing errors
How it was run: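 Nanobodies came from a synthetic yeast display library in Saccharomyces cerevisiae BJ5465, induced with galactose for 36–48 hours and stained for 1 hour at 4 °C with 10% biotinylated, detergent-solubilized Sf9 membrane reagent. Cells were enriched on streptavidin microbeads and then FACS-sorted, with low and high (top ~1%) gates set on anti-HA fluorescence for expression and streptavidin fluorescence for reagent binding. Each polyreactivity label reflects the gate a clone came from. Genes were amplified by colony PCR, sequenced by MiSeq 2 × 250 and filtered by CDR length.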

Sequence | polyreactivity (PSR sort gate)
QVQLVESGGGLVQAGGSLRLSCAASRRTFYYAMGWYRQAPWKERYADSVKGRFTISRDNAKNTVYLQMNSLKPVDTAVYYCAAKVPEPPSLDESDYWGQGTQVTVSS | low polyreactivity
QLQLVESGGGLVQAGGSLRLSCAASGGIFGYYTMGSYRQAPGKEREFVAAITSRGGSTYYADSVKGRFTISRDTAKNTVYLQMNSLKPEDTAVYYCAARRQRDRYGYWGQGTQVTVSS | high polyreactivity
QVQLLESGGGLVQAVGSLRLSCAASGIIFWVNAMGWYRQAPGKERELFAAIRSDGSTKYADSVKGRFTISRDNAKNTVYLLMNSLKPEDTAHYYCAKRDYSYTWLRDYYYWGQGTQVTVSS | low polyreactivity
QVQLVESGGGLVQAGGSLRLSCAASGRTSVRYAMGWYRQAPGKERELVAAISWSGGSTYYADSVKGRFTISRDNAKNTVYLQMNSLKPEDTAVYYCAAERGPTNHTSYPWYEYDYWGQGTQVTVSS | low polyreactivity
QVQLVESGGGLVQAGGSLRLSCAASGSTFDYYTMGWYRQAPGKERELVAAISYSGSRTYYADSVKGRFTISRDNAKNTVYLQMNSLKPEDTAVYYCARVASSVWYKQEYSYYNFDYWGQGTQVTVSS | high polyreactivity
QFQLVESGGGLVQAGGSLRLSCAASGSTFVFYAMGWYRQAPGKQRELVATISTGGSTYADSVKGRFTISRDNAKNTVYLQMNSLKPEDTAVYYCAADSLFGHYDYSGQGTQVTVSS | low polyreactivity
QVQLVESVGGLVQAGGSLRLSCAASGSILAVNAMGWYRQAPGKERELVAAISSRGGSTSYADSVKGRYTISRDNAKNTVYLQMNSLKPEDTAVYYCAVRAVRRLRTSVPVRFYYWGQGTQVTVSS | high polyreactivity
QVQLVESGGGLVQAGGSLRLSCAASGRTFVIYAMGWYRQAPGKEREFVAAISRSGGSTYYADSVKGRFTISRDNAKNTVYLQMNSLKPEDTAVYYCNTRTPYWFKSDYWGQGTQVTVSS | low polyreactivity
QVQLVESGGGLVQAGGSLRLSCAASGNTSPFYAMGWYRQAPGKERELVAAISANGGSTTYADSVKGRFTISRDNAKNTVYLQMNSLKPEDTALYYCNALSLLSDGAASVDQVTFDYWGQGTQVTVSS | low polyreactivity
QVQLVESGGGLVQAGGSLRLSCAASGSIFDYYAMGWYRQAPGKERELVASISWIGDRTYYADSVKGRFTISRDNAKNTVYLQMNSLKPEDTAVYYCATDYYEDWRGYEVYWYRPYDYWGQGTQVSVSS | high polyreactivity
QVQLVESGGGLVQAGGSLRLSCAASGRIFYQNVMGWYRQAPGKERELVAAITTSGGRTYYADSVKGRFTISRDNAKNTVYLQMNSLKPEDTAVYYCAAKASNRGYYYWGQGTQVTVSS | high polyreactivity
QVQLVESGGGLVQAGGSLRLSFAASGNTFVSNAMGWYRQAPGKERELVAAISGRGGRTYYADSVKGRFTISRDIAKDTVYLQMNSLKPEDTAVYYCDADQYKDFDYWGQGTLVTVSS | low polyreactivity
QVQLVESGGGLVQAGGSLRISCAASGRIFRGNALGWYRQAPGTERELVAAITRSGGSTYYADSVKGRFTISRDNAKNTVYLQMNSLKPEDTAVYYCAAGYPYYSYLYDYWGQGTQVSVSS | high polyreactivity
QVQLVESGGGLVQAGGSLRLSCAASGLTFRNYAMGWYRQAPGKEREVVADISWSGGSTYYADSVKGRFTISRDNAKITVYLQMNSLKPEDTAVYYCAARFHYPGGPRYYYWGQGTQVTVSS | high polyreactivity
QVQLVESGGGLVQAGGSLRLSCAASGSIFWEYAMGWYRQAPGKDREFVATISARGGRTYYADSVKGRFTSSRDNAKNTVYLQMNSLKPDATAVYYCANVGVFHLRDNYRFDYWGQGTQVTVSS | low polyreactivity
QVQLLESGGGLFQAGGSLRLICAASGRIFDENAMGWYRQAPRKDREMVAAISWSGGITYYADSVKGRFTISRDYAKNNVYLQMNSLKPEDTAVYYCAADIFQGYTFYQGYPGGAGYWGQGTQVTVSS | low polyreactivity
QVQLVESGGGLVQAGGSLRLSCAASGRTFGWKARGWYRQAPGKEMELVAAISWSGTNTYDADSVKGRFTISRDNAKNTVYLQMNSLKPEDTAVYYCAARDWTGSWNGYWSWEYNYWGQGTQVTVSS | low polyreactivity
QVQLVESGGGLVQAGGSLRLSCAASGSTFGYYAMGWYRQAPGKERELVAAISYIGGSTYYADSVKGRFTISRDNANNTDYLQMNSQKPEDTAVYYCAAQYVTYAYDYWGQGTQVTVSS | low polyreactivity
QVQIVESGGGLVQAGGSLRLSCAASGRTFRANAMGWYRQAPGKERELVAAIRTGTRTYYADSVKGRFTISRDNANNTVYFQMNSLKTVDSAVYYCAARYYHPYSHGYWQERDYWGQGTKVTVSS | high polyreactivity
QVQLVESGGGLVQAGGSLRLSCAASGITLYWYAMGWYRPAPGKERELVAAISRRGGTTYYADSVKGRFTISRDNAKNTVYLQMNSLKPEDTAVYYCAKAPDTQTSWSRQEGNYWGQGTQVTVSS | low polyreactivity
QVQHVESGGGLVQAGGSLRLTCAASGNTFWWNAMGWYRQAPGKERELVAAISWRGGSTYYADSVKGRFTISRDNAKNTVYLQMKCLKPEDTAVYYCAKRNYHDESVVEEDYWGQGTQVTVSS | low polyreactivity
QVQLVESGGGLVQAGGSLRLSCAASGSIFNGNAMGWYRQAPGKERELVAAISRNRGSTYYADSVKGRFTISRDNAKNTVYLQMNSLKPEDTAVYYCPTDLTVYYSYYWMYWGQGTQVTVSS | low polyreactivity

Sequence | polyreactivity (PSR sort gate)
QVQLVESGGGLVQAGGSLRLSCSASGYIFGRNSMGWYRTAHGKERELVAVISSRGSRTYYADSVKGRFTISRDNAKNTVYLQMNSLKPEDTAVYYCNAVLWWDWVYDFYYWGQGNQVTVSS | high polyreactivity
QVQLVESGGGLVQAGGSLRLSCASSGRTFLVNAMGSYRPAPGKERELVAAISQSGGSTYYADSVKGRFTISRDNAKNTVYLQMNCLKPVDTEVYYCAAELINDYYWGQGTQVSVSS | low polyreactivity
QVQLVESGGGLVQAGGSLRLSCAASGSIIVPYAMGWYRQAPGKERELVAAISSRGGRTYYADSVKGRFTISRDNAKNTVYLQMNSLKPEDTAVYYCNKTAGSHIPRLEYWGQGTQVTVSS | low polyreactivity
QVQLVDSGGGLVQAGGSLRLSCAASGRTFYTYAMGWYRVAPGKEWELVAAITGGGSTTYADSVKGRFTISRDNAKNTVYLQMNSLKPEDTEVYYCAALIYGPERVVDEYDYWGQGTQVTVSS | low polyreactivity
QVQLVESGGGLVQAGGSLRLSCAASGLILSTYAMGWYRQAPGKERELVAAITWRSGSTYYADSVKGRFTISRDNAKNTVYLQMNSLKPEDTAVYYCNVAPTFPYNGYEYWGQGTQVTVSS | high polyreactivity
QVQLVESGGGLVQAGGSLRLSCAASGRIFGYYAMGWYRQAPGKERELVAAIDGSGGTTYYADSVKGRITISRDNAKNSVYLQMNSLKPEATAVYYCAARGYNSKYGYWGQGTQVTVSS | high polyreactivity
QVKLQGSGGGLAQAGDSLRLSCAASGTIFSEYNNGLVSPGAGQRTRTCCRYWCWGNTYYADSAKGRFTTSRDNAKNSVYLQKNSLKPEDTAVYYCAFNLPYPSRHIYRGQGTQVTVSS | high polyreactivity
QVQLVESGGGLVQAGGSLRLSCAASGFTFSRYTMGWYRQAPGKERELDAAINRRGGSTYYADSVKGRFTISRDNAKNTVYLQMNSLKPEDTAVYYCAATYTVRSGNGIANDYWGQGTQVTVSS | high polyreactivity
QVQLVESGGVLVQAGGSLRLSCAPSGYIYSKYAMGWYRQAPGKERELVASITGRGSRTYYADSVKGRFTISRDNAKNTVYLQMNSLKPEDIAVYFCAADWYGQKTSNRWYFRPGYDYWGQGTQVTVSS | high polyreactivity
QVQLVESGGGLVQAGGSLRLSCAASGRIFYRYAMGWYRQAPGKERELVAAITGSVGSTYYADSVKGRFTISRDNAKNTVYLQMNSLKPEDTAVYYCAREYHGDSRRYDYWGQGTQVTVSS | high polyreactivity
QVQLVESGGGLVQARGSLRLSCASSGSIFRFNGMGWYRQPPGKERELVATISSGGRTNYADSVKGRFTISRDNAKNTVYLQMNSLKPEDTAVYYCAARSPLRTSYYYPYYYWGQGTQVTVSS | high polyreactivity
QVQLVESGGGLVQAGGSLSLSCAATGSIITSNAMGWYRQAPGKERELVAAISWSGSRTFYADSVKGRFTISRDNEKNTVYLQMNSLKPEDTAVYYCAAGNRKWKMGYWGQGTQVTVSS | high polyreactivity
QVQLVESGGGLVQAGGSLRLSCAASGSTLHSYAMGWYRQAPGKERELVAAISFRGGSTYADSVKGRFTISRDNAKNTVYLQMNSLKPEDTAVYYCAAYSLYTMYWGQGTQVTVSS | low polyreactivity
QVQLVESGGGLVQAGGSLRLSCAASGSIFITYAMGWYRQAPGKERELVAAITDSGDSTYYADSVKGRFTISRDNAKNTVYLQMISLKPEDTAVYYCAKRYYGSYSHFIRTDGYWGQGTQVTVSS | low polyreactivity
QVQLVESGGALVQAGGSLRISCAASGLTFKLYTMGWYRQAPGKERELLAAISRSGTRTYYADSVKGRFTISRDNAKNTVYLLMNSLKPEDTADYYCAARTDGYRNNYWGQGTQVTVSS | high polyreactivity
QVQLVESGGGLVQAGGSLRLSCAASGRIFTSNTMAWYRQAPGKERELVAAITSSGGSMYYADSVKGRFTLSRDNAKNTVYLQIISLKPEDTAVYYFAGDTIGYHYWYDYWGQGTQVTVSS | low polyreactivity
QVQLVESGGGLVQAGGSLRLSCAASGSTFSPYAMGWYRQAPGKERELVAGITSSGGDTYYADSVKGRFTISRDNAKNTVYLQMNSLKPEDTAVYYCAAGLQGYPRKFNYWGQGTQVTVSS | low polyreactivity
QVQLVESGGGLVQAGGSLRLSCAASGFTFWDYTMGWYRQAPGKERELVAAISSSGGGTYYADSVKGRFTISRDNAKNTVYLQMNSLKPVDTAVYYCAASVWYYPMDYWGQGTQVTVSS | low polyreactivity
QVQLVESGGGLVQAGGSLRLSCAASGSIFYSNAMGWYRQAPGKERELVAAITWRGGSTYYADSVKGRFTISRDNAKYTVYLQLNSLKPEDTAVYYCNADGSARTPYYYRWYRYGYWGQGTQVTVSS | high polyreactivity
QVQLVESGGGLVQAGGSLRLSCAASGGIFSPNAMGWYRQAPGKERELVAAISSNGGSTNYADSVKGRFTISRDHAKNTVYLQMNSLKPEDTAVYYCAGLQKRRSYWRPFYWGQGTQVTVSS | low polyreactivity
QVQLVESGGGLVQAGGSLRLSCAASGRTFRPYAMGWYRPAPGKERELVAAISYRGGITNYADSVKGRFTISRDNAKNTVYLKMNSLKPEDTAVYYCNRYAIWVSRYSDLDYWGQGTEVTVSS | low polyreactivity
